Source: paper PMC6994669 (Nature Communications, 2020)

T1: mouse CASK N-terminal kinase domain (residues 1–323) fused with the N-terminal His6-tag (mouse, UniProt O70589 1-323)
T1 construct: mouse CASK (calcium/calmodulin-dependent serine kinase), N-terminal kinase domain, residues 1-323; Cloned into pET21a, the same vector as the C-terminally tagged PTPδ D2-His6, yet the methods call this tag N-terminal; also called His6-CASK; N-terminal kinase domain of CASK; not shown: His6, N-terminal, kept
T1 sequence (looked up): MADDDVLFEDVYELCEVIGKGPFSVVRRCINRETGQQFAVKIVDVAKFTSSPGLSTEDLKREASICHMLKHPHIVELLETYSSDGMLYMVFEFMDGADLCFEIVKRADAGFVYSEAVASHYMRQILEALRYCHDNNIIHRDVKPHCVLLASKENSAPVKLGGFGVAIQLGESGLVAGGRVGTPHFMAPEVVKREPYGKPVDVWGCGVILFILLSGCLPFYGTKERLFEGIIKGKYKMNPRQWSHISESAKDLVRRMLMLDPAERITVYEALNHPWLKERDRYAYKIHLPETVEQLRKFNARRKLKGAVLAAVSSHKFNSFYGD

B1: mouse Liprin-α3 tSAM (residues 808–1114) (domain or fragment)
chain: not shown
notes: mouse Liprin-α3, tandem SAM domain (αN, SAM1-SAM3), residues 808-1114; also called WT; source: E. coli Rosetta (DE3), purified (Glutathione Sepharose, Resource Q, GST cleaved off by HRV3c protease, Superdex 200); not shown: GST, N-terminal, cleaved

What was measured:
[1] = target: T1, mouse CASK N-terminal kinase domain …; test: pull-down; GST pull-down (Fig. 5c): Liprin-α3 tSAM and/or His6-CASK mixed with GST-PTPδ D2 at equimolar ratio (20 µM) in PBS with 0.1% Triton X-100, then immobilised on Glutathione Sepharose FF; eluted with glutathione; SDS-PAGE, Coomassie; details: both partners purified
[2] = target: B1; test: SPR; Biacore T200, 25 °C, 10 mM Hepes-NaOH pH 7.5, 150 mM NaCl, 0.005% Tween-20; wild-type or mutant PTPδ D2-His6 amine-coupled on a CM5 chip; wild-type or mutant Liprin-α3 tSAM injected, twofold dilutions from 40 µM to 39 nM; equilibrium KD; details: both partners purified

Row | Binder | binding result [1] | Kd [2] [µM]
1 | B1 | binds | 
2 | PTPδ D2-His6 D1504A (domain or fragment) NTEVPARNLYAYIQKLTQIETGENVTGMELEFKRLASSKAHTSRFISANLPCNKFKNRLVNIMPYESTRVCLQPIRGVEGSDYINASFLDGYRQQKAYIATQGPLAETTEDFWRMLWEHNSTIVVMLTKLREMGREKCHQYWPAERSARYQYFVVDPMAEYNMPQYILREFKVTDARDGQSRTVRQFQFTDWPEQGVPKSGEGFIDFIGQVHKTKEQFGQDGPISVHCSAGVGRTGVFITLSIVLERMRYEGVVDIFQTVKMLRTQRPAMVQTEDQYQFCYRAALEYLGSFAHYAT |  | 18
3 | PTPδ D2-His6 F1399A (domain or fragment) NTEVPARNLYAYIQKLTQIETGENVTGMELEFKRLASSKAHTSRFISANLPCNKFKNRLVNIMPYESTRVCLQPIRGVEGSDYINASFLDGYRQQKAYIATQGPLAETTEDFWRMLWEHNSTIVVMLTKLREMGREKCHQYWPAERSARYQYFVVDPMAEYNMPQYILREFKVTDARDGQSRTVRQAQFTDWPEQGVPKSGEGFIDFIGQVHKTKEQFGQDGPISVHCSAGVGRTGVFITLSIVLERMRYEGVVDIFQTVKMLRTQRPAMVQTEDQYQFCYRAALEYLGSFDHYAT |  | 32
4 | PTPδ D2-His6 L1380A (domain or fragment) NTEVPARNLYAYIQKLTQIETGENVTGMELEFKRLASSKAHTSRFISANLPCNKFKNRLVNIMPYESTRVCLQPIRGVEGSDYINASFLDGYRQQKAYIATQGPLAETTEDFWRMLWEHNSTIVVMLTKLREMGREKCHQYWPAERSARYQYFVVDPMAEYNMPQYIAREFKVTDARDGQSRTVRQFQFTDWPEQGVPKSGEGFIDFIGQVHKTKEQFGQDGPISVHCSAGVGRTGVFITLSIVLERMRYEGVVDIFQTVKMLRTQRPAMVQTEDQYQFCYRAALEYLGSFDHYAT |  | > 40
5 | PTPδ D2-His6 Y1506A (domain or fragment) NTEVPARNLYAYIQKLTQIETGENVTGMELEFKRLASSKAHTSRFISANLPCNKFKNRLVNIMPYESTRVCLQPIRGVEGSDYINASFLDGYRQQKAYIATQGPLAETTEDFWRMLWEHNSTIVVMLTKLREMGREKCHQYWPAERSARYQYFVVDPMAEYNMPQYILREFKVTDARDGQSRTVRQFQFTDWPEQGVPKSGEGFIDFIGQVHKTKEQFGQDGPISVHCSAGVGRTGVFITLSIVLERMRYEGVVDIFQTVKMLRTQRPAMVQTEDQYQFCYRAALEYLGSFDHAAT |  | 11.4
